Assay results published in patent US20110243928A1 (published 2011).
Each block holds one binder with its values, some of them ahead of it.

Assays:
[1] = molecular target: T1, E. coli-expressed recombinant cynomolgus IL-13 (cynomolgus, UniProt Q5I6E4 21-132 (Macaca thibetana entry)); assay: BIAcore
T1 construct: also called cyno IL13 (CA); cIL-13
T1 chain: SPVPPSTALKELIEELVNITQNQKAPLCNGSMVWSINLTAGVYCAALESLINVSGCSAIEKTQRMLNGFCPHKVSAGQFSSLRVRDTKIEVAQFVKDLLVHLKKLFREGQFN

[2] = molecular target: T2, E. coli-expressed recombinant human IL-13 (human, UniProt P35225 35-146); assay: BIAcore
T2 construct: Untagged E. coli-expressed human IL-13; also called hIL-13; human IL13 (CA)
T2 sequence (P35225 other isoform, or with tags, fused parts or gaps): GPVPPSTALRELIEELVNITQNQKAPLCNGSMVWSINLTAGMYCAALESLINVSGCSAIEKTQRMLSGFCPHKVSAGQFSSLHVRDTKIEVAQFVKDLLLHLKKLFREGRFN

[3] = molecular target: T3, E. coli-expressed recombinant det-1 tagged human IL-13 (human, UniProt P35225 35-146); assay: BIAcore
T3 construct: also called Det-1 tagged human IL-13 (made in-house); not shown: det-1 tag
T3 sequence (P35225 other isoform, or with tags, fused parts or gaps): as above

[4] = molecular target: E. coli-expressed recombinant human GM-CSF (human, UniProt P04141 18-144); assay: sandwich ELISA
E. coli-expressed recombinant human GM-CSF, sequence (P04141 18-144 limits assumed): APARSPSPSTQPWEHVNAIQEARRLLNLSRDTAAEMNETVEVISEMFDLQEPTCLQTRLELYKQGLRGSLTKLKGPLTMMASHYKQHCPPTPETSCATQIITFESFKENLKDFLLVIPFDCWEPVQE

[5] = molecular target: T4, 16mer biotinylated human IL-13 peptide number 24 (human, N-terminal biotin; C-terminal amide); assay: BIAcore analysis 3, antibody over immobilised biotinylated peptide 24
T4 construct: format Biotin-SGSG-PEPTIDE-amide; also called Peptide 24
T4 peptide: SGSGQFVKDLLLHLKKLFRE
Method: Completed for the 16mer biotinylated human IL-13 peptide number 24 (identified as the linear binding epitope for parental mAb 6A1, see section 6.7). Note that the absolute KD values obtained for binding to peptide ligands are often quite different to those seen for binding to whole protein targets.
The kinetics analysis was performed on a Biacore 3000 machine using direct binding of antibody to immobilised IL-13 peptide. Briefly, IL-13 biotinylated peptide was captured using a Biacore SA (strepavidin) Biosensor chip. The antibodies were then passed over the sensor surface at various concentrations. The subsequent binding curves were analysed with Biacore analysis software BIAeval 4.1 to determine kinetics. The experiment was carried out using Biacore HBS-EP buffer

[6] = molecular target: T2, E. coli-expressed recombinant human …; assay: BIAcore, summary of the analyses
[7] = molecular target: T2, E. coli-expressed recombinant human …; assay: BIAcore analysis 2

Kd [1]: 0.0612 nM
koff [1]: 5.6e-05 s⁻¹
kon [1]: 914000 M⁻¹ s⁻¹
Kd [2]: 0.27 nM
koff [2]: 0.000184 s⁻¹
kon [2]: 682000 M⁻¹ s⁻¹
Kd [3]: 0.032 nM
koff [3]: 7.2e-05 s⁻¹
kon [3]: 2.25e+06 M⁻¹ s⁻¹
binding result [4]: no binding
B1: monoclonal antibody 6A1 (antibody, IgG1, V domains shown)
VH: EIQLQQSVAELVRPGASVRLSCTASGFYIKDTYMHWVIQRPEQGLEWIGTIDPANGNTKYVPKFQGKATITADTSSNTAYLRLSSLTSEDTAIYYCARSIYDDYHYDDYYAMDYWGQGTSVTVSS
VL: DVLMTQTPLSLPVSLGDQASISCRSSQNIVHINGNTYLEWYLQKPGQSPKLLIYKISDRFSGVPDRFSGSGSGTDFTLKISRVEAEDLGVYYCFQGSHVPWTFGGGTKLEIK
notes: also called 6A1 parental mAb; parental mouse mAb 6A1

fold reduction in affinity against chimaeric 6A1 [5]: ~3 fold
Kd [6]: ~0.168 nM
koff [6]: 8.22e-05 s⁻¹
kon [6]: ~600000 M⁻¹ s⁻¹
Kd [7]: 0.149 nM
koff [7]: 6.95e-05 s⁻¹
kon [7]: 466000 M⁻¹ s⁻¹
B2: L1+A1 (antibody, human IgG1, kappa, V domains shown)
VH: QVQLVQSGAEVKKPGSSVKVSCKASGFYIKDTYMHWVRQAPGQGLEWMGTIDPANGNTKYVPKFQGRVTITADESTSTAYMELSSLRSEDTAVYYCARSIYDDYHYDDYYAMDYWGQGTLVTVSS
VL: DIVMTQSPLSLPVTPGEPASISCRSSQNIVHINGNTYLEWYLQKPGQSPRLLIYKISDRFSGVPDRFSGSGSGTDFTLKISRVEADDVGIYYCFQGSHVPWTFGQGTKLEIKR
notes: Humanised 6A1, VH construct A1 and VL construct L1, human gamma1 wild type / kappa constant regions; also called A1L1; humanised anti-IL-13 mAb L1+A1
